These are literature values, as cited in PMC12990809.

Holding throughout (experiment): pulldown
What all share (details): 20 nM protein, 1.5 uM RNA pool; 20 mM HEPES pH 7.8, 70 mM KCl, 10 mM NaCl, 10% glycerol, 2 mM DTT, 0.1 ug/uL BSA; 30 min, 4 C (protocol of this paper; not …); cited from earlier work

The target in data set [1] is T1, MAL13P1.35 (Plasmodium falciparum) (UniProt C0H5A4).
T1 sequence: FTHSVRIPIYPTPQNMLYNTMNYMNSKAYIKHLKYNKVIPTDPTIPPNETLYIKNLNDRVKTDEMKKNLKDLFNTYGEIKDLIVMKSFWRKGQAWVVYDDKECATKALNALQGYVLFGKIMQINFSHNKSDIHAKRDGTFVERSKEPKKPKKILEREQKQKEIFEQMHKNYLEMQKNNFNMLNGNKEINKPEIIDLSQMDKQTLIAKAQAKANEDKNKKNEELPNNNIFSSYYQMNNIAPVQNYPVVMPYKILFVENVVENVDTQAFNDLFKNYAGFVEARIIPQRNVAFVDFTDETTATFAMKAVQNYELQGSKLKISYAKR

Data set [2] has as its target T2, Smp_067420 (Schistosoma mansoni) (UniProt G4LZ80).
T2 sequence: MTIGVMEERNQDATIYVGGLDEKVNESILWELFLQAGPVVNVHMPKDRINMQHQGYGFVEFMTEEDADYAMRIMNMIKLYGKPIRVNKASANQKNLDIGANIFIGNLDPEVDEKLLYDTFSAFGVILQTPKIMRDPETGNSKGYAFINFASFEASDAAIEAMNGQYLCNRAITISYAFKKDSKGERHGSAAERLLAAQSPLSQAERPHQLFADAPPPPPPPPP

The target of data set [3] is T3, gw1.219.6.1 (Physcomitrella patens) (UniProt A0A2K1KNA4).
T3 sequence: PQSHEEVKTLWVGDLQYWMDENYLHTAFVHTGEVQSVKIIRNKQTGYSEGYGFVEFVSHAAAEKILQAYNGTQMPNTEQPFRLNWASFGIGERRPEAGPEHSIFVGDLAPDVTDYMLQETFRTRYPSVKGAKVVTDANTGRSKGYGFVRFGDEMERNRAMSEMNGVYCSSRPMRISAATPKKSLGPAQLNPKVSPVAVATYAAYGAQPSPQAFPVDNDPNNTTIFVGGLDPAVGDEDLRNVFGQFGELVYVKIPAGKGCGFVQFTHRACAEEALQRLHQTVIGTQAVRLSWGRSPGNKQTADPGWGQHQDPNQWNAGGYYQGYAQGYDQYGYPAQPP

Data set [4] deals with T4, Tb927.3.3670 (Trypanosoma brucei) (UniProt Q57WA3).
T4 sequence: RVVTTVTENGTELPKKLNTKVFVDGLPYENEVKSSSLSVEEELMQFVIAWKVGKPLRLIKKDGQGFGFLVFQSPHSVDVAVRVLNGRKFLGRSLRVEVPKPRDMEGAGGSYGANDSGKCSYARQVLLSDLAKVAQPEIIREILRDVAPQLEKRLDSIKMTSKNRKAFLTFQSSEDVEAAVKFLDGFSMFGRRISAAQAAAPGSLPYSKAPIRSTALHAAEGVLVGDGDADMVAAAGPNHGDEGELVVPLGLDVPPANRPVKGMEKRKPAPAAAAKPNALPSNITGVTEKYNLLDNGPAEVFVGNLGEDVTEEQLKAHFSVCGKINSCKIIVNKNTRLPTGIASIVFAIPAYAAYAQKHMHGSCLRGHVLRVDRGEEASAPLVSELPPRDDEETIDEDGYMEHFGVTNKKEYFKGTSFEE

In data set [5] the target is T5, PFF0320c (Plasmodium falciparum) (UniProt C6KSR3).
T5 sequence: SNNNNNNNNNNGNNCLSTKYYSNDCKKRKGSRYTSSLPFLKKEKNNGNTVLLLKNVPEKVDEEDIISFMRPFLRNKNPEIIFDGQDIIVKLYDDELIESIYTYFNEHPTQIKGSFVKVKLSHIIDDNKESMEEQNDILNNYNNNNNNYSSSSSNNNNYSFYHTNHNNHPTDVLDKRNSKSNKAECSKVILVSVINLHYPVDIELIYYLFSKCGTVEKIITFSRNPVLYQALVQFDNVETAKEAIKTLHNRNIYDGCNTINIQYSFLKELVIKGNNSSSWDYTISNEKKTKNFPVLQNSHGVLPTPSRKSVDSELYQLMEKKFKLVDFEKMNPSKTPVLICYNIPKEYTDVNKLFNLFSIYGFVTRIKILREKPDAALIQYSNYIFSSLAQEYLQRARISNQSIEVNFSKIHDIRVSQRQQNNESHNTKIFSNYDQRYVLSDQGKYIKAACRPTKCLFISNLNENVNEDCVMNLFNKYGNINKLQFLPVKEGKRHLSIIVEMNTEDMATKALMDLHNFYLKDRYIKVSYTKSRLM

Data set [6] addresses T6, gw1.84.45.1 (Physcomitrella patens) (UniProt A0A2K1L0S1).
T6 sequence: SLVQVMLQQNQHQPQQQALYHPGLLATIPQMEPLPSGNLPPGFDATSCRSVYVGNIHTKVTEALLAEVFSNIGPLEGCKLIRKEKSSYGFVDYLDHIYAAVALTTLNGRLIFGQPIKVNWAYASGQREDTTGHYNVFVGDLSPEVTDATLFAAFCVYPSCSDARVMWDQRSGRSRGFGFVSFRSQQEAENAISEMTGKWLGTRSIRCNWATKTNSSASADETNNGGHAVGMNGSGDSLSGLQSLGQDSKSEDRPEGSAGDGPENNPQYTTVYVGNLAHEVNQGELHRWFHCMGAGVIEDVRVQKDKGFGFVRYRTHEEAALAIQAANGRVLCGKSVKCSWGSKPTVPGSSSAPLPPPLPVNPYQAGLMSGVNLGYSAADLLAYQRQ

Data set [7] concerns the target Pcbp1 (Mus musculus) (UniProt P60335).
In data set [8] the target is T7, Rbm45 (Mus musculus) (UniProt Q8BHN5).
T7 sequence: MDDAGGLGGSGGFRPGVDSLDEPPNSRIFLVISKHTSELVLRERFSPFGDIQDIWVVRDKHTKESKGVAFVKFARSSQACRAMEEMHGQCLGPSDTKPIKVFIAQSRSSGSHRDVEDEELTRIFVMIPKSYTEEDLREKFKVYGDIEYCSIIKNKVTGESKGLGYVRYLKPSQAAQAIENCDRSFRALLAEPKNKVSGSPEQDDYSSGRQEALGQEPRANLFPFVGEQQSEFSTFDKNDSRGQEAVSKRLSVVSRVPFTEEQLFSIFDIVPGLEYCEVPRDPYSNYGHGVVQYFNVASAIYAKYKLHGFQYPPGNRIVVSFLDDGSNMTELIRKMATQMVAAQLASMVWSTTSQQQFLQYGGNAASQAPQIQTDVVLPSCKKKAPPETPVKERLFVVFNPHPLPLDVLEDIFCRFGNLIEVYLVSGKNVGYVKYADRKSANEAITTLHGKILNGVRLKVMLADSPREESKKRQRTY

Data set [9] deals with T8, NCU02404 (Neurospora crassa) (UniProt V5ILJ4).
T8 sequence: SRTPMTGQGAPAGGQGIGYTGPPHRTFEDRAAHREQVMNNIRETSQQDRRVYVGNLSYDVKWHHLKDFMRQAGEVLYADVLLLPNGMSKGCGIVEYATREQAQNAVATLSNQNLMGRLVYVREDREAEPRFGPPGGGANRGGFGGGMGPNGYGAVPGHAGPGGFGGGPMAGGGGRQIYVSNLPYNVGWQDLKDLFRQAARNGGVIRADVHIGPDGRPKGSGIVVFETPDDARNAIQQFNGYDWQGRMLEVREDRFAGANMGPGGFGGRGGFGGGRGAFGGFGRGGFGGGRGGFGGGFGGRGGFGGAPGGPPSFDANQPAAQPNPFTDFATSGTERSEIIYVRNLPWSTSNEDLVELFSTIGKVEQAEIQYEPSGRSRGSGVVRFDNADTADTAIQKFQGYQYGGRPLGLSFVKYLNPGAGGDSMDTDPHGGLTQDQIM

Data set [10] concerns the target T9, fox-1 ins385_GNEYIMYHQAKQQELP (Caenorhabditis elegans) (UniProt Q10572).
T9 sequence: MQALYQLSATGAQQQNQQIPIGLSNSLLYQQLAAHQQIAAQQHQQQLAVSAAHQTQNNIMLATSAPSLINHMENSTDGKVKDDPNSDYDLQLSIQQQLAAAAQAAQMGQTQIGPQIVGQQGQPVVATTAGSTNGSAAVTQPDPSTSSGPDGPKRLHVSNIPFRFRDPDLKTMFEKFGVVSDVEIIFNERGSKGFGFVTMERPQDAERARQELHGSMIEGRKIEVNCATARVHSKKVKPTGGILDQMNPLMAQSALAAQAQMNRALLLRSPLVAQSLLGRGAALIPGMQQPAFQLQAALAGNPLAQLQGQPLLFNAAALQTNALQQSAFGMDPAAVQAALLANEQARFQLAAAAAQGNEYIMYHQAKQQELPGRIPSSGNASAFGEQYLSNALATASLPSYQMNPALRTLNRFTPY

For data set [11], the target named is pcbp2 (Danio rerio) (UniProt A0A8M1PCB6).
Data set [12] deals with T10, rbm4.3 (Danio rerio) (UniProt A0ACM8Q3W8).
T10 sequence: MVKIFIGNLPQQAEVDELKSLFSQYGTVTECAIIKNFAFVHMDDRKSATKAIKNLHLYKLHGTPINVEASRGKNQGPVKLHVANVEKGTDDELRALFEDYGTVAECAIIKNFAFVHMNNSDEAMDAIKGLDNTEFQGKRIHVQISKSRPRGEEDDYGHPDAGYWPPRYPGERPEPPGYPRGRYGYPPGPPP

The target in data set [13] is hnrnpabb (Tetraodon nigroviridis) (UniProt Q4SDS6).
For data set [14], the target named is T11, PF10_0214 (Plasmodium falciparum) (UniProt Q8IJI3).
T11 sequence: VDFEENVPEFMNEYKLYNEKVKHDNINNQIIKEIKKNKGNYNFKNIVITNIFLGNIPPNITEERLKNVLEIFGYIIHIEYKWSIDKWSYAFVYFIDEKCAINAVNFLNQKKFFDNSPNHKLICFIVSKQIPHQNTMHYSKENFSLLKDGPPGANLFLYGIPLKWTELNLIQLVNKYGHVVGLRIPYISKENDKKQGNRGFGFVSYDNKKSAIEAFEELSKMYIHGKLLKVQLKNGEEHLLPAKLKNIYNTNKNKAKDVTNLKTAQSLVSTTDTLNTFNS

Data set [15] addresses T12, estExt_gwp_gw1.C_700168 (Physcomitrella patens) (UniProt A0A2K1JQP1).
T12 sequence: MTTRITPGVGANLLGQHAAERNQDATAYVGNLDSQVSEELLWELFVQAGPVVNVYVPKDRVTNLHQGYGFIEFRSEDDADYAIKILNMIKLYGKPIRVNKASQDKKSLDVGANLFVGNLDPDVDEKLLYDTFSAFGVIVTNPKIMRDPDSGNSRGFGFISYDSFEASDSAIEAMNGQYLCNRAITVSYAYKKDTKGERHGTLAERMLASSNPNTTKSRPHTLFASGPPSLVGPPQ

Data set [16] concerns the target T13, Phyra93644 G140S (Phytophthora ramorum) (UniProt H3HB24).
T13 sequence: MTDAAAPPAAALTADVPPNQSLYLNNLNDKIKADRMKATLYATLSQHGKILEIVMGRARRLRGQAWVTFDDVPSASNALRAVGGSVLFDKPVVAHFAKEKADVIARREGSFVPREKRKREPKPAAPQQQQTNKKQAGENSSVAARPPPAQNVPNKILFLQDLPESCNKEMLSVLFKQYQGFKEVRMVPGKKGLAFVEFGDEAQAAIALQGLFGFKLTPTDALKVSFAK

In data set [17] the target is T14, TVAG_514790 (Trichomonas vaginalis) (UniProt A2GMP0).
T14 sequence: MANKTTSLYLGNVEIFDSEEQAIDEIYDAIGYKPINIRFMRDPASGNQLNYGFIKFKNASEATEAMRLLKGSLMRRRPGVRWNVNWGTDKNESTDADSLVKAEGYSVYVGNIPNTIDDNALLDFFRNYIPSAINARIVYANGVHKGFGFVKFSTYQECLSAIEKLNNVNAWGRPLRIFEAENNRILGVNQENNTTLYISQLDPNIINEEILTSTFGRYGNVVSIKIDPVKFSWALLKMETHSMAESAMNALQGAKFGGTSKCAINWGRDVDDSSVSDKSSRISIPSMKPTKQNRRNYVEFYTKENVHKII

Chain of pcbp2 (Danio rerio) (A0A8M1PCB6 entry or part of it): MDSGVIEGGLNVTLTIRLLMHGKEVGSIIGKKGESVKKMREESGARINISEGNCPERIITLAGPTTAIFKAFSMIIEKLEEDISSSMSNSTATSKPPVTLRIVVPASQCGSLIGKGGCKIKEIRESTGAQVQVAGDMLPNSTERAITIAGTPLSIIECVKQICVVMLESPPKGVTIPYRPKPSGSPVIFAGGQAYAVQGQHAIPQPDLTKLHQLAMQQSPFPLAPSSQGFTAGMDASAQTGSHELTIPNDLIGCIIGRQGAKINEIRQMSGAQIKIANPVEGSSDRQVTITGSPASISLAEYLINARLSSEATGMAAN
Chain of Pcbp1 (Mus musculus) (P60335 whole entry): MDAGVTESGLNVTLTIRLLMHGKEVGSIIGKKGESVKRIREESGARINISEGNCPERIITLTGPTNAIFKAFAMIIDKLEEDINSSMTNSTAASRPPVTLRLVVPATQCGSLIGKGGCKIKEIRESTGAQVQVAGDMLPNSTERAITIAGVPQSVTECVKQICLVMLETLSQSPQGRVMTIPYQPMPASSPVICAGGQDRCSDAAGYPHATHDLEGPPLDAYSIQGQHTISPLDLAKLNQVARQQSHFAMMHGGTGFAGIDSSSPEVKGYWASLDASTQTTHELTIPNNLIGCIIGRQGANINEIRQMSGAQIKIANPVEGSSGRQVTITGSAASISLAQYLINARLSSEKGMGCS
Chain of hnrnpabb (Tetraodon nigroviridis) (Q4SDS6 entry or part of it): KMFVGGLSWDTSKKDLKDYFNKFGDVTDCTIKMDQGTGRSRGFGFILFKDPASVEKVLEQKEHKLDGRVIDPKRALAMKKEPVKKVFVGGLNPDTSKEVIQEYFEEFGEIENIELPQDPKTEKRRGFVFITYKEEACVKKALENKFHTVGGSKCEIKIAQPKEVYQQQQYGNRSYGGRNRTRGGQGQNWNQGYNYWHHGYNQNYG

Consider AUUACAC [RNAcompete motif RNCMPT00234], for which the binding signal (z-score (mean of top ten 7-mers)) in data set [1] was 15.8.
As for AUUUUUU [RNAcompete motif RNCMPT00232], the binding signal (z-score (mean of top ten 7-mers)) in data set [2] is 8.88.
For UGUUUUU [RNAcompete motif RNCMPT00229], the binding signal (z-score (mean of top ten 7-mers)) in data set [3] is 6.94.
Consider GAAGGA [RNAcompete motif RNCMPT00230], for which the binding signal (z-score (mean of top ten 7-mers)) in [4] is 6.23.
Turning to ACUAAAC [RNAcompete motif RNCMPT00235], the binding signal (z-score (mean of top ten 7-mers)) in data set [5] was 8.17.
For the sequence UUUUUU [RNAcompete motif RNCMPT00228], the binding signal (z-score (mean of top ten 7-mers)) in data set [6] is 12.9.
Take CUUUCCC [RNAcompete motif RNCMPT00239]: the binding signal (z-score (mean of top ten 7-mers)) in data set [7] is 6.21.
Regarding GACGAC [RNAcompete motif RNCMPT00241], the binding signal (z-score (mean of top ten 7-mers)) in [8] is 10.6.
Regarding GGAGGA [RNAcompete motif RNCMPT00238], the binding signal (z-score (mean of top ten 7-mers)) in [9] was 6.21.
As to UGCAUG [RNAcompete motif RNCMPT00017], in [10], the binding signal (z-score (mean of top ten 7-mers)) is 24.8.
As for CUUUCCC [RNAcompete motif RNCMPT00246], in [11], the binding signal (z-score (mean of top ten 7-mers)) was 6.92.
ACGACG [RNAcompete motif RNCMPT00248]: in [12], the binding signal (z-score (mean of top ten 7-mers)) is 10.2.
AGAUAGA [RNAcompete motif RNCMPT00245]: in data set [13], the binding signal (z-score (mean of top ten 7-mers)) is 8.14.
Take AUUCCGA [RNAcompete motif RNCMPT00240]: in [14], the binding signal (z-score (mean of top ten 7-mers)) was 11.3.
With GAUGGAGU [RNAcompete motif RNCMPT00237], the binding signal (z-score (mean of top ten 7-mers)) in data set [15] was 9.26.
As for UUGCAC [RNAcompete motif RNCMPT00249], in data set [16], the binding signal (z-score (mean of top ten 7-mers)) was 12.
Turning to UUUUUU [RNAcompete motif RNCMPT00236], in [17], the binding signal (z-score (mean of top ten 7-mers)) was 10.3.
